Source: patent US20250197451A1 (CAPITAL MEDICAL UNIVERSITY SCHOOL OF STOMATOLOGY, published 2025)

B1: peptide 194 (peptide)
peptide: ANENQQPIKSEPESE
B2: peptide 21 (peptide)
peptide: ALRVPLIFREKDGLG
B3: peptide 216 (peptide)
peptide: YLSHQDLCVCMRVCR
B4: peptide 22 (peptide)
peptide: LIFREKDGLGIKMPD
B5: peptide 211 (peptide)
peptide: PPDSLPLDDGAAHVM
B6: peptide 206 (peptide)
peptide: PPPSVSPPKCIQMER
B7: peptide 196 (peptide)
peptide: EPESEGEEPKRPPGI
B8: peptide 217 (peptide)
peptide: DLCVCMRVCRTWNRW
B9: peptide 203 (peptide)
peptide: QLGPSLRSPPRVISR
B10: peptide 212 (peptide)
peptide: PLDDGAAHVMHREVW
B11: peptide 193 (peptide)
peptide: TENSLANENQQPIKS
B12: peptide 220 (peptide)
peptide: CCDKRLWTRIDLNHC
B13: peptide 224 (peptide)
peptide: LMLSGIIRRQPVSLD
B14: peptide 214 (peptide)
peptide: HREVWMAVFSYLSHQ
B15: peptide 204 (peptide)
peptide: LRSPPRVISRPPPSV
B16: peptide 191 (peptide)
peptide: SKELNHEIQRTENSL
B17: peptide 215 (peptide)
peptide: MAVFSYLSHQDLCVC
B18: peptide 192 (peptide)
peptide: HEIQRTENSLANENQ
B19: peptide 20 (peptide)
peptide: YVQREALRVPLIFRE
B20: peptide 197 (peptide)
peptide: GEEPKRPPGICERPH
B21: peptide 221 (peptide)
peptide: LWTRIDLNHCKSITP
B22: peptide 200 (peptide)
peptide: RFSKGLNGTPRELRH
B23: peptide 190 (peptide)
peptide: LSRELSKELNHEIQR
B24: peptide 222 (peptide)
peptide: DLNHCKSITPLMLSG
B25: peptide 213 (peptide)
peptide: AAHVMHREVWMAVFS
B26: peptide 199 (peptide)
peptide: CERPHRFSKGLNGTP
B27: peptide 218 (peptide)
peptide: MRVCRTWNRWCCDKR
B28: peptide 195 (peptide)
peptide: QPIKSEPESEGEEPK
B29: peptide 207 (peptide)
peptide: SPPKCIQMERHVIRP

What follows are binders tested against T1, biotin-labelled EZH2 protein (UniProt Q15910 1-746, limits assumed, biotin label (EZ-link NHS-PEO4-Biotinylation kit)) (assay: KDM2B peptide array probed with biotin-EZH2 1 ug/ml, SA-HRP/ECL;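 also: Background-corrected optical density of each spot on the membrane, given as percent of the brightest spot (100%), color developed for 5 minutes; 100% is the highest background-corrected spot optical density on the membrane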).
T1 construct: Probe in solution (1 ug/ml) on the KDM2B peptide microarray; also called NHS-PEO4-Biotinylation-labelled EZH2 protein; recombinant protein
T1 sequence (Q15910 whole entry): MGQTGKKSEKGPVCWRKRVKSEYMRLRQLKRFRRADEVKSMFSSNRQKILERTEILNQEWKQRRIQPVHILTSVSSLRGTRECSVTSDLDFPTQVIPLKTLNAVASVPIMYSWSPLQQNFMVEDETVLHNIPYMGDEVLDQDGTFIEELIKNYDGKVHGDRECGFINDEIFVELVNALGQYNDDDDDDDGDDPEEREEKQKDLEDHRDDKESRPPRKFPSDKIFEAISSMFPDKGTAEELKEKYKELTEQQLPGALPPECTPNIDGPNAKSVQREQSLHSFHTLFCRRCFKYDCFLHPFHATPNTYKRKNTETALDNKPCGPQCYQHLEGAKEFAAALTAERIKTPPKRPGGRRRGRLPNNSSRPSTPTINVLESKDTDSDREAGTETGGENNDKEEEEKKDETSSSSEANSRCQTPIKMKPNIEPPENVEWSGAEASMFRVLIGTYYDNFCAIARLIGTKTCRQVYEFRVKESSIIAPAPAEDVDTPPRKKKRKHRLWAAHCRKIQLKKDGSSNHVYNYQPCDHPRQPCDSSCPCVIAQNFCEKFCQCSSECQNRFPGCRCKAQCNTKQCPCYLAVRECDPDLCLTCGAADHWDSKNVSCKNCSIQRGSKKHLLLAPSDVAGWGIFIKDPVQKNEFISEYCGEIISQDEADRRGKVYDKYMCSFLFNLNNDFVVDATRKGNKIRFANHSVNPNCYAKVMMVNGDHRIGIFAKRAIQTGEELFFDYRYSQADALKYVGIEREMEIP
Experimental: After blocking, the polypeptide microarray was incubated with biotin-labeled target protein for hybridization, visualized with the chemical chromogenic substrate and imaged using a Chempchemi digital imager. The image of colored polypeptide microarray was analyzed for the optical density of the colored points. Particularly, the optical density of each colored point was calculated using the optical density of the respective surrounding background as a reference for background correction. The highest optical density value of the colored point on membrane was set to 100%, and the optical density value of the remaining colored points was converted into percentages relative to the highest value. The points with an optical density percentage of more than 30% on the polypeptide membrane and also with an optical density percentage of less than 30% on the negative membrane were defined as positive colored points.
For the hybridization experiment, a solution of NHS-PEO4-Biotinylation-labelled EZH2 protein (1 μg/ml) was used for the hybridization of the polypeptide microarray. Streptavidin-HRP was used to amplify the reaction signal according to the experimental procedure and conditions described above, and the time of color development was 5 minutes.

Going from B1 to B2, the “Intensity (%)” value rises from 0% to 21.1%.

Going from B3 to B4, the “Intensity (%)” value rises from 0% to 2.54%.

First: B5
Second: B6
The “Intensity (%)” value of the first is lower: 0% for the first, 1.29% for the second.

First: B7
Second: B8
The “Intensity (%)” value of the first is higher: 1.04% for the first, 0.19% for the second.

B9 and B10 are the same in “Intensity (%)” value: 0% for the first, 0% for the second.

Going from B11 to B12, the “Intensity (%)” value rises from 0% to 4.32%.

B13 and B14 are the same in “Intensity (%)” value: 0% for the first, 0% for the second.

First: B15
Second: B16
The “Intensity (%)” value of the first is higher: 1.91% for the first, 0% for the second.

First: B17
Second: B18
The “Intensity (%)” value of the first is higher: 2.82% for the first, 0.19% for the second.

First: B19
Second: B20
The “Intensity (%)” value of the first is higher: 1.28% for the first, 0% for the second.

Compared with B21, B22 is lower in “Intensity (%)” value: 4.09% for the first, 0.91% for the second.

Compared with B23, B24 is lower in “Intensity (%)” value: 0.26% for the first, 0% for the second.

Compared with B25, B26 is lower in “Intensity (%)” value: 11.8% for the first, 0.18% for the second.

First: B27
Second: B28
The “Intensity (%)” value of the first is higher: 2.93% for the first, 2.29% for the second.

B29 was tested, and the “Intensity (%)” value was 0%.
